The test concerns the target PaPlaB, phospholipase B of Pseudomonas aeruginosa PA01 (gene pa2927) (P. aeruginosa PA01). The test is described as follows: SEC-MALS. On the technique in general: Size exclusion chromatography separates by hydrodynamic size, large species first.

Substance “PaPlaB, phospholipase B of Pseudomonas aeruginosa PA01 (gene pa2927) (enzyme)” displayed a stoichiometry N of 7.

The term stoichiometry N denotes a count of units in the complex or per binding partner.

These data come from doi:10.1101/2021.06.15.448513.
